Measured values from patent US20250051465A1 (published 2025).

B1: H4H18438P2 (antibody, human IgG4, V domains shown)
VH: QVQLVESGGGVVQPGRSLRLSCAASGFSFNTYGMHWVRQAPGKGLEWVTIIWYDGSIKYYADSVKGRFTISRDNSKNTLYLQMNSLRAEDTAVYYCARGGYSGYLYFDYWGQGTLVTVSS
VL: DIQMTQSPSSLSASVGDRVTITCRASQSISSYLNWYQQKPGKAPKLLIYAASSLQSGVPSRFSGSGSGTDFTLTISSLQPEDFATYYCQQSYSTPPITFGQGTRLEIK
notes: Fully human antibody with human IgG4 Fc (H4H prefix)
B2: H4H18445P2 (antibody, human IgG4, V domains shown)
VH: QVQLQESGPGLVKPSQTLSLTCTVSGGSISSGGDYWSWIRQLPGKGLEWIGYIYYSGSAYYNPSLKSRGTISIDTSKNQFSLKLTSVTAADTAVYFCVKLRFLEWFLGGWFGPWGQGTLVTVSS
VL: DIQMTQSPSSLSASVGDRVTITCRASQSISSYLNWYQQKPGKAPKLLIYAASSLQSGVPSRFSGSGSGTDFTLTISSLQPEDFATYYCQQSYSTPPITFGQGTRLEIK
notes: as for B1
B3: H4H18449P2 (antibody, human IgG4, V domains shown)
VH: EVQLVESGGGLVQPGGSLRLSCVASGFTFNKYDMHWVRQTTGKGLEWVSGIDTDGDTYYPGSVKGRFTISRENAENSLYLQMNGLRVGDTAVYYCARWPWSGFYGAFDIWGQGTMVTVSS
VL: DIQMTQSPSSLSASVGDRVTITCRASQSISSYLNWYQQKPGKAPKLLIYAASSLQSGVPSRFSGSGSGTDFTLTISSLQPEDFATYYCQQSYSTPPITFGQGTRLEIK
notes: as for B1
B4: H4H18417P2 (antibody, human IgG4, V domains shown)
VH: QVQLVESGGGVVQPGRSLRLSCAASGFTFSTYGMHWVRQAPGKGLEWVSVISYDESNKYYADSVKGRFTISRDNSKNALYLQMNSLRNEDTAVYYCARDRPFGLVTGWFDPWGQGTLVTVSS
VL: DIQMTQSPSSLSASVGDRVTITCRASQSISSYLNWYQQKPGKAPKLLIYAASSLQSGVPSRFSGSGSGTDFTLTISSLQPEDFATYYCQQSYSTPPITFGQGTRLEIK
notes: as for B1

Each binder was assayed against T1, human LEPR extracellular domain expressed with a C-terminal myc-myc-hexahistidine tag (hLEPR.mmh) (human, UniProt P48357 22-839) (assay: Luminex, myc-captured full length extracellular domain).
T1 construct: also called human LEPR-MMH; monomeric human LEPR
Method: Aliquots of microspheres with immobilized anti-myc monoclonal antibodies, prepared as described above, were added individually to 1 mL of the each of these protein supernatants. The microspheres were gently mixed, incubated for two hours at 25° C., washed twice with 1 mL of DBPS, centrifuged to remove the supernatant and finally resuspended in 1 mL of DPBS buffer. Forty-eight μL of anti-myc IgG coupled microspheres from individual reactions with full length human LEPR and with each of the human LEPR domain proteins were withdrawn and mixed together in 3.6 mL of PBS+20 mg/mL BSA+0.05% sodium azide (blocking buffer).
From this mixed pool, 75 μL of microspheres were plated per well on a 96 well filter plate (Millipore, Cat. No: MSBVN1250) and mixed with 25 μL of individual anti-human LEPR monoclonal antibodies (0.5 or 5 µg/mL), incubated for two hours at 25° C. and then washed twice with 200 μL of DPBS with 0.05% Tween 20 (washing buffer). […] After 30 minutes, the samples were washed twice with 200 μL of washing buffer and resuspended in 150 μL of wash buffer. The Median Fluorescence intensity (MFI) of the microspheres was measured in a Luminex Analyzer.

| MFI | Binder |
| --- | --- |
| 6250 MFI | B1 |
| 6570 MFI | B2 |
| 7980 MFI | B3 |
| 4890 MFI | B4 |

The binders below were run against T1, human LEPR extracellular domain … (assay: SPR, captured mAb, 37C).
Method: (§1) Equilibrium dissociation constants (KD values) for LEPR binding to purified anti-LEPR monoclonal antibodies were determined using a real-time surface plasmon resonance biosensor using a Biacore 4000 instrument. All binding studies were performed in 10 mM HEPES, 150 mM NaCl, 3 mM EDTA, and 0.05% v/v Surfactant Tween-20, pH 7.4 (HBS-ET) running buffer at 25° C. and 37° C. The Biacore sensor surface was first derivatized by amine coupling with a monoclonal mouse anti-human Fc antibody (GE, #BR-1008-39) to capture anti-LEPR monoclonal antibodies. […] Kinetic association (kₐ) and dissociation (kd) rate constants were determined by fitting the real-time binding sensorgrams to a 1:1 binding model with mass transport limitation using Scrubber 2.0c curve-fitting software. Binding dissociation equilibrium constants (KD) and dissociative half-lives (t½) were calculated from the kinetic rate constants as: […]

| 100 nM hLEPR-MMH Bound (RU) | Kd | koff | kon | t½ | Binder |
| --- | --- | --- | --- | --- | --- |
| 32 RU | 170 nM | 0.00576 s⁻¹ | 33800 M⁻¹ s⁻¹ | 2 min | B1 |
| 38 RU | 326 nM | 0.0168 s⁻¹ | 51300 M⁻¹ s⁻¹ | 0.7 min | B2 |
| 73 RU | 20.7 nM | 0.000815 s⁻¹ | 39400 M⁻¹ s⁻¹ | 14 min | B3 |
| 22 RU | 233 nM | 0.018 s⁻¹ | 77000 M⁻¹ s⁻¹ | 0.6 min | B4 |

The binders below were run against T2, Macaca fascicularis LEPR extracellular domain expressed with a C-terminal myc-myc-hexahistidine tag … (Macaca fascicularis, UniProt Q9MYL0 22-837 (rhesus entry)) (assay: SPR, captured mAb, 37C).
T2 construct: also called mfLEP.MMH
Method: as §1

| 100 nM mfLEPR.MMH Bound (RU) | Kd | koff | kon | t½ | Binder |
| --- | --- | --- | --- | --- | --- |
| 48 RU | 264 nM | 0.019 s⁻¹ | 71700 M⁻¹ s⁻¹ | 0.6 min | B2 |
| 28 RU | 217 nM | 0.0263 s⁻¹ | 122000 M⁻¹ s⁻¹ | 0.4 min | B4 |

Molecular target: T3, human LEPR extracellular domain expressed with a C-terminal mouse IgG2a Fc tag (hLEPR.mFc) (human)
T3 construct: also called dimeric human LEPR
T3 chain: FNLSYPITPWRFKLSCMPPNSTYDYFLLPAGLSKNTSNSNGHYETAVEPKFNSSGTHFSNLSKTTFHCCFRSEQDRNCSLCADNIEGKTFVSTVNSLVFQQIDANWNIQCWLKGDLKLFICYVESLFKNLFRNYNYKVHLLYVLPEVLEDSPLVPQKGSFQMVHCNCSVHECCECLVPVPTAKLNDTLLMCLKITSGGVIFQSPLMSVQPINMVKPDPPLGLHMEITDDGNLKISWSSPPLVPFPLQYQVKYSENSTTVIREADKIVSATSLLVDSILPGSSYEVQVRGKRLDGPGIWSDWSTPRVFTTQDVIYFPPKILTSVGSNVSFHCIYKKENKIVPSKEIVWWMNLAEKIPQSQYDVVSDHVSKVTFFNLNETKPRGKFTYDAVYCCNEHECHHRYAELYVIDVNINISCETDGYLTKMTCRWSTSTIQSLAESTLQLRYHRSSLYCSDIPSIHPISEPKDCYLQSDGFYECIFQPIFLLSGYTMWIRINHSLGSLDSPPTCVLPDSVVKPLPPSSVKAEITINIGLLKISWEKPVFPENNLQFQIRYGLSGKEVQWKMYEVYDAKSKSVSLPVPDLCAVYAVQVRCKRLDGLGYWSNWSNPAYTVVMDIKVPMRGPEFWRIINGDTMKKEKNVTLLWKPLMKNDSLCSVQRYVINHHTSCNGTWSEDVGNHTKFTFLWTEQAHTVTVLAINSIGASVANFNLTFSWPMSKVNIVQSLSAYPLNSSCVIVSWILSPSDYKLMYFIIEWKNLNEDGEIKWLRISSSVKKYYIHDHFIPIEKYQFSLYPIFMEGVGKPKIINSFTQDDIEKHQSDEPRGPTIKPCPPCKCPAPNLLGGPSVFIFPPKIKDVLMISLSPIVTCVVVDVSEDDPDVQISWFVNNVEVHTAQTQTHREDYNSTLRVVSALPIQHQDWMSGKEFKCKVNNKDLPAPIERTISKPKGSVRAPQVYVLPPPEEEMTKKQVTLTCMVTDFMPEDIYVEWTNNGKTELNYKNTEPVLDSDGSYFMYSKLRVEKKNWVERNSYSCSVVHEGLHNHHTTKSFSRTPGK
Assay: SPR, captured mAb, 37C
Method: as §1

| 100 nM hLEPR-mFc Bound (RU) | Kd | koff | kon | t½ | Binder |
| --- | --- | --- | --- | --- | --- |
| 82 RU | 8.53 nM | 0.000598 s⁻¹ | 70200 M⁻¹ s⁻¹ | 19 min | B1 |
| 104 RU | 3.89 nM | 0.000608 s⁻¹ | 156000 M⁻¹ s⁻¹ | 19 min | B2 |
| 148 RU | 1.26 nM | 0.000168 s⁻¹ | 133000 M⁻¹ s⁻¹ | 69 min | B3 |
| 111 RU | 5.64 nM | 0.00105 s⁻¹ | 185000 M⁻¹ s⁻¹ | 11 min | B4 |

The binders below were run against T1, human LEPR extracellular domain … (assay: SPR, captured mAb, 25C).
Method: as §1

| 100 nM hLEPR-MMH Bound (RU) | Kd | koff | kon | t½ | Binder |
| --- | --- | --- | --- | --- | --- |
| 22 RU | 75.4 nM | 0.00226 s⁻¹ | 30000 M⁻¹ s⁻¹ | 5.1 min | B1 |
| 45 RU | 108 nM | 0.00478 s⁻¹ | 44200 M⁻¹ s⁻¹ | 2.4 min | B2 |
| 54 RU | 8.08 nM | 0.000235 s⁻¹ | 29100 M⁻¹ s⁻¹ | 49 min | B3 |
| 28 RU | 129 nM | 0.0079 s⁻¹ | 61400 M⁻¹ s⁻¹ | 1.5 min | B4 |

Each binder was assayed against T2, Macaca fascicularis LEPR extracellular … (assay: SPR, captured mAb, 25C).
Method: as §1

| 100 nM mfLEP.MMH Bound (RU) | Kd | koff | kon | t½ | Binder |
| --- | --- | --- | --- | --- | --- |
| 58 RU | 82.4 nM | 0.00486 s⁻¹ | 59000 M⁻¹ s⁻¹ | 2.4 min | B2 |
| 33 RU | 139 nM | 0.0123 s⁻¹ | 88300 M⁻¹ s⁻¹ | 0.9 min | B4 |

Molecular target: T3, human LEPR extracellular domain …
Assay: SPR, captured mAb, 25C
Method: as §1

| 100 nM hLEPR-mFc Bound (RU) | Kd | koff | kon | t½ | Binder |
| --- | --- | --- | --- | --- | --- |
| 51 RU | 4.7 nM | 0.000244 s⁻¹ | 51900 M⁻¹ s⁻¹ | 47 min | B1 |
| 76 RU | 4.03 nM | 0.000492 s⁻¹ | 122000 M⁻¹ s⁻¹ | 23 min | B2 |
| 116 RU | 0.964 nM | 6.82e-05 s⁻¹ | 70500 M⁻¹ s⁻¹ | 169 min | B3 |
| 90 RU | 4.04 nM | 0.000563 s⁻¹ | 140000 M⁻¹ s⁻¹ | 21 min | B4 |
